Article PMC3657141, “Directed evolution to re-adapt a co-evolved network within an enzyme” (Journal of Biotechnology, 2012)

Substrate: CCC=O
Experiment: purified protein
Format: biochemical, Escherichia coli
Settings: 50 mM LiHPA, 2.4 mM TPP, 9 mM MgCl2, 250 mM NaCl, 50 mM Tris-HCl, pH 7.0, 21 °C

B1: transketolase (TK) (Escherichia coli K-12; D469S) (protein)
chain: MSSRKELANAIRALSMDAVQKAKSGHPGAPMGMADIAEVLWRDFLKHNPQNPSWADRDRFVLSNGHGSMLIYSLLHLTGYDLPMEELKNFRQLHSKTPGHPEVGYTAGVETTTGPLGQGIANAVGMAIAEKTLAAQFNRPGHDIVDHYTYAFMGDGCMMEGISHEVCSLAGTLKLGKLIAFYDDNGISIDGHVEGWFTDDTAMRFEAYGWHVIRDIDGHDAASIKRAVEEARAVTDKPSLLMCKTIIGFGSPNKAGTHDSHGAPLGDAEIALTREQLGWKYAPFEIPSEIYAQWDAKEAGQAKESAWNEKFAAYAKAYPQEAAEFTRRMKGEMPSDFDAKAKEFIAKLQANPAKIASRKASQNAIEAFGPLLPEFLGGSADLAPSNLTLWSGSKAINEDAAGNYIHYGVREFGMTAIANGISLHGGFLPYTSTFLMFVEYARNAVRMAALMKQRQVMVYTHDSIGLGESGPTHQPVEQVASLRVTPNMSTWRPCDQVESAVAWKYGVERQDGPTALILSRQNLAQQERTEEQLANIARGGYVLKDCAGQPELIFIATGSEVELAVAAYEKLTAEGVKARVVSMPSTDAFDKQDAAYRESVLPKAVTARVAVEAGIADYWYKYVGLNGAIVGMTTFGESAPAELLFEEFGFTVDNVVAKAKELL
notes: 680 residues; homodimer
B1 gave a Km of 70.8 mM, a kcat of 0.952 ± 0.0567 s⁻¹ and a kcat/Km of 13.5 ± 0.333 M⁻¹ s⁻¹.
